Data as given in patent US9273304B2, “Inactivation method” (Thermo Fisher Scientific Baltics UAB, priority 2006, dated 2016).

T1: Pfu DNA polymerase (Pyrococcus furiosus, UniProt P61875)
T1 construct: Native Pfu DNA polymerase was used at initial concentration of 1.065 mg/ml
T1 sequence (P61875 1-775): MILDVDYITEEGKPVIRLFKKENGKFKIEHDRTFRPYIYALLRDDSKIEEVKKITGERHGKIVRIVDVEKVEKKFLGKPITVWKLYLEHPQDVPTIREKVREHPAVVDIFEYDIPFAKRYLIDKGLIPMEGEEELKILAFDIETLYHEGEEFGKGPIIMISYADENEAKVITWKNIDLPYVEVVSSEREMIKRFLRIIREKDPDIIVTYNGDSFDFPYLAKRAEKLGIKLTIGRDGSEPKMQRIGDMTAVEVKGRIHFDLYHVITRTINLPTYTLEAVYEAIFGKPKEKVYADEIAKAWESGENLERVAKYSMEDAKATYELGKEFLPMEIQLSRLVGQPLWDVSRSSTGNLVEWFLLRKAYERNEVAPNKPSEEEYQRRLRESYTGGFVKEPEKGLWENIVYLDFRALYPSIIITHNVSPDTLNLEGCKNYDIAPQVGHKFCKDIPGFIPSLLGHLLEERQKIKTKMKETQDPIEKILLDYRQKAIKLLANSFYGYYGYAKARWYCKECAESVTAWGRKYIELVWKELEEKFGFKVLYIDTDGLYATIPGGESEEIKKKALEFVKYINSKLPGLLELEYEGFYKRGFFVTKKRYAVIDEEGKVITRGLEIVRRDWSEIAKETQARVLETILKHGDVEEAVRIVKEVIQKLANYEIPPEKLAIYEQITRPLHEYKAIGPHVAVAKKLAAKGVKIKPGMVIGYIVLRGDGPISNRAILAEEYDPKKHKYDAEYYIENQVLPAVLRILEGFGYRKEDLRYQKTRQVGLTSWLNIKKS


Legend:
Taq DNA polymerase = Taq DNA polymerase (Thermus aquaticus, UniProt P19821); experiment: Polymerase activity assay: incorporation of [3H]-dTTP into the polynucleotide adsorbed on DE-81 in 30 min at 70° C.; assay type: biochemical; conditions: aqueous solution
Taq DNA polymerase, sequence (P19821 whole entry): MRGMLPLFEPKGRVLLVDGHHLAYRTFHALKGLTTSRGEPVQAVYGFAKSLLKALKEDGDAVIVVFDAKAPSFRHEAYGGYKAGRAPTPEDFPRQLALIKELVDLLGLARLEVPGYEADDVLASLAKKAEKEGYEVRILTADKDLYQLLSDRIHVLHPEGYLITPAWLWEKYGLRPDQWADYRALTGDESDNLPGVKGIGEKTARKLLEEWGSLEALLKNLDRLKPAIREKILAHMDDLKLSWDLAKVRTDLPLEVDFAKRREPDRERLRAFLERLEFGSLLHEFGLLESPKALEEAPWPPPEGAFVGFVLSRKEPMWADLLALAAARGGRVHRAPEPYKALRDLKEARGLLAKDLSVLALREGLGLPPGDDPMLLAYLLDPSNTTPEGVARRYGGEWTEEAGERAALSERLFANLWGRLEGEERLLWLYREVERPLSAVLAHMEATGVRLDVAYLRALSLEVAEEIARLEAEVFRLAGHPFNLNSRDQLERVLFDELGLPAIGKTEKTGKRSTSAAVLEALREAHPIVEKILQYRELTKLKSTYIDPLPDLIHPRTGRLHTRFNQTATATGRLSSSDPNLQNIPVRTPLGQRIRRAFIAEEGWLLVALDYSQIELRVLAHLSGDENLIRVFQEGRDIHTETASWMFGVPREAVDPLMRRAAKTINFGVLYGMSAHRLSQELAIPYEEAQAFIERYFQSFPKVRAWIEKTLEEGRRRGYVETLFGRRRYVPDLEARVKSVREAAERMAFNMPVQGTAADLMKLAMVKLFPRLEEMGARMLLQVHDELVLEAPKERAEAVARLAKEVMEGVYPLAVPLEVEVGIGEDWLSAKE
Procedure: The measure of the enzyme activity was incorporation of [^3H]-dTTP into polynucleotide fraction. One unit of polymerase activity is defined as the enzyme amount which incorporates 10 nmoles of deoxyribonucleotides into the polynucleotide adsorbed on DE-81 in 30 min at 70° C.
For activity assays, Taq DNA polymerase was diluted up to 4 u/ml with the dilution buffer of the following composition: 20 mM Tris-HCl (pH 8.8 at 25° C.), 1 mM EDTA, 1 mM DTT, and BSA (0.1 mg/ml). Reactions were carried out at 70° C. for 30 min with 5 μl of the diluted enzyme in 50 μl of the reaction buffer of the following composition: 67 mM Tris-HCl (pH 8.8 at 25° C.), 50 mM NaCl, 6.7 mM MgCl2, 1 mM DTT, and BSA (0.1 mg/ml). The reaction buffer was supplemented with 0.2 mM dNTP, [3H]-dTTP (0.4 MBq/ml) and 0.75 mM activated DNA from calf thymus.
Activity of the modified enzymes was measured either with the pre-incubation step, or without it, for 10 min at 95° C. in the pre-heating buffer of the following composition: 20 mM Tris-HCl (pH 8.25 at 25° C.), 100 mM KCl, 2 mM MgCl2, 0.5% Tween 20, 0.5% Nonidet P40, and 16% glycerol.
(§1) Aliquots (35 μl) of the enzyme solution were mixed with 2.25 μl aliquots of the N-ethoxycarbonyl-2,3-dimethylmaleinimide solutions described above resulting in the following molar ratios of Taq DNA polymerase to N-ethoxycarbonyl-2,3-dimethylmaleinimide: 1/1280 1/640, 1/320, 1/160, 1/110, 1/80, 1/40. The mixtures were incubated for 20 hours at 4° C. to modify the Taq DNA polymerase. Control samples, in which the enzyme was left unmodified (e.g., the ratio was 1/0), were obtained by mixing the Taq DNA polymerase with a 2.25 μl aliquot of DMF. These control samples were incubated under the same conditions as the modified ones.
The samples of the unmodified Taq DNA polymerase and the modified Taq DNA polymerases were diluted 250-fold in the pre-heating buffer (see Example 2) and activities of the modified enzyme were measured both before heat-reactivation and after it, as described in the Example 2. Activities of both inactivated and heat-reactivated DNA polymerases were determined as described in the Example 2, and the data were normalized to activity of the unmodified Taq DNA polymerase
Aliquots (20.6 μl) of the diluted enzyme solution were mixed with 1 μl of N-isobutoxycarbonyl-2,3-dimethylmaleinimide solutions described above resulting in different molar ratios of Taq DNA polymerase to N-isobutoxycarbonyl-2,3-dimethylmaleinimide (1/320, 1/160, 1/80 and 1/40). The mixtures were incubated 20 hours at 4° C. to modify the Taq DNA polymerase. Control samples, in which the enzyme was left unmodified (e.g., the ratio was 1/0), were obtained by mixing the Taq DNA polymerase with a 1 μl aliquot of DMF. These control samples were incubated under the same conditions as the modified ones. The heat-reactivation of the modified enzymes was performed as described in the Example 3.

Pfu DNA polymerase = molecular target: T1, Pfu DNA polymerase; experiment: Polymerase activity assay: incorporation of [3H]-dTTP into the polynucleotide adsorbed on DE-81 in 30 min at 50° C. or 72° C.; assay type: biochemical; conditions: aqueous solution
Procedure: as §1, with “A set of N-ethoxycarbonyl-2,3-dimethylmaleinimide solutions (72 mM, 18 mM) was prepared by serial dilutions of the 720 mM stock in N,N dimethylformamide (DMF). Aliquots” for “Aliquots”, “(25” for “(35”, “1” for “2.25”, “Pfu” for “Taq”, “1/800, 1/200.” for “1/1280 1/640, 1/320, 1/160, 1/110, 1/80, 1/40.”
The samples of the unmodified Pfu DNA polymerase and the modified Pfu DNA polymerases were diluted in the pre-heating buffer (see Example 2) either 9-fold for measurements at 50° C., or 24-fold for measurements at 72° C. (see Example 2). Activities of the modified enzymes were measured either with the pre-incubation step, or without it, for 10 min at 95° C.
For activity assays, Pfu DNA polymerase was diluted up to 11 u/ml (91 u/ml for measurements at 50° C.) in the dilution buffer (see Example 2). Reactions were carried out either at 50° C., or at 72° C. for 30 min. Aliquots (5 μl) of the diluted enzyme were added to 50 μl of the reaction buffer of the following composition: 20 mM Tris-HCl (pH 8.8 at 25° C.), 10 mM (NH4)2SO4, 10 mM KCl, 2 mM MgCl2, 0.1% Triton X-100, and BSA (0.1 mg/ml) supplemented with, 0.2 mM dNTP, [3H]-dTTP (0.4 MBq/ml) and 0.75 mM activated DNA from calf thymus.

[1] = molar ratio Taq DNA polymerase/N-iso-butoxycarbonyl-2,3-dimethylmaleinimide 1/40
[2] = molar ratio Taq DNA polymerase/N-iso-butoxycarbonyl-2,3-dimethylmaleinimide 1/80
[3] = molar ratio Taq DNA polymerase/N-iso-butoxycarbonyl-2,3-dimethylmaleinimide 1/160
[4] = molar ratio Taq DNA polymerase/N-iso-butoxycarbonyl-2,3-dimethylmaleinimide 1/320
[5] = molar ratio Pfu/N-etoxycarbonyl-2,3-dimethylmaleinimide 1/200
[6] = molar ratio Pfu/N-etoxycarbonyl-2,3-dimethylmaleinimide 1/800

Row | Molecule | Activity at 70° C. (%) After 10 min. preheating at 95° C. (Taq DNA polymerase; [1]) [%] | Activity at 70° C. (%) Without preheating at 95° C. (Taq DNA polymerase; [1]) [%] | Activity at 70° C. (%) After 10 min. preheating at 95° C. (Taq DNA polymerase; [2]) [%] | Activity at 70° C. (%) Without preheating at 95° C. (Taq DNA polymerase; [2]) [%] | Activity at 70° C. (%) After 10 min. preheating at 95° C. (Taq DNA polymerase; [3]) [%] | Activity at 70° C. (%) Without preheating at 95° C. (Taq DNA polymerase; [3]) [%] | Activity at 70° C. (%) After 10 min. preheating at 95° C. (Taq DNA polymerase; [4]) [%] | Activity at 70° C. (%) Without preheating at 95° C. (Taq DNA polymerase; [4]) [%] | Activity at 50° C. (%) After 10 min. preheating at 95° C. (Pfu DNA polymerase; [5]) [%] | Activity at 50° C. (%) Without preheating at 95° C. (Pfu DNA polymerase; [5]) [%] | Activity at 72° C. (%) After 10 min. preheating at 95° C. (Pfu DNA polymerase; [5]) [%] | Activity at 50° C. (%) After 10 min. preheating at 95° C. (Pfu DNA polymerase; [6]) [%] | Activity at 50° C. (%) Without preheating at 95° C. (Pfu DNA polymerase; [6]) [%] | Activity at 72° C. (%) After 10 min. preheating at 95° C. (Pfu DNA polymerase; [6]) [%]
1 | Taq DNA polymerase treated with N-iso-butoxycarbonyl-2,3-dimethylmaleinimide: Recombinant Taq DNA polymerase modified with N-isobutoxycarbonyl-2,3-dimethylmaleinimide in aqueous solution, molar ratios 1/40 to 1/320 | ~90 | ~50 | ~100 | ~40 | ~80 | ~30 | ~40 | ~10 |  |  |  |  |  | 
2 | Pfu DNA polymerase modified with N-etoxycarbonyl-2,3-dimethylmaleinimide: Native Pfu DNA polymerase reversibly inactivated with N-ethoxycarbonyl-2,3-dimethylmaleinimide, molar ratios 1/200 and 1/800 (protein, UniProt P61875 1-775, looked up, modified with dimethylmaleinimide reagent) DNA polymerase: MILDVDYITEEGKPVIRLFKKENGKFKIEHDRTFRPYIYALLRDDSKIEEVKKITGERHGKIVRIVDVEKVEKKFLGKPITVWKLYLEHPQDVPTIREKVREHPAVVDIFEYDIPFAKRYLIDKGLIPMEGEEELKILAFDIETLYHEGEEFGKGPIIMISYADENEAKVITWKNIDLPYVEVVSSEREMIKRFLRIIREKDPDIIVTYNGDSFDFPYLAKRAEKLGIKLTIGRDGSEPKMQRIGDMTAVEVKGRIHFDLYHVITRTINLPTYTLEAVYEAIFGKPKEKVYADEIAKAWESGENLERVAKYSMEDAKATYELGKEFLPMEIQLSRLVGQPLWDVSRSSTGNLVEWFLLRKAYERNEVAPNKPSEEEYQRRLRESYTGGFVKEPEKGLWENIVYLDFRALYPSIIITHNVSPDTLNLEGCKNYDIAPQVGHKFCKDIPGFIPSLLGHLLEERQKIKTKMKETQDPIEKILLDYRQKAIKLLANSFYGYYGYAKARWYCKECAESVTAWGRKYIELVWKELEEKFGFKVLYIDTDGLYATIPGGESEEIKKKALEFVKYINSKLPGLLELEYEGFYKRGFFVTKKRYAVIDEEGKVITRGLEIVRRDWSEIAKETQARVLETILKHGDVEEAVRIVKEVIQKLANYEIPPEKLAIYEQITRPLHEYKAIGPHVAVAKKLAAKGVKIKPGMVIGYIVLRGDGPISNRAILAEEYDPKKHKYDAEYYIENQVLPAVLRILEGFGYRKEDLRYQKTRQVGLTSWLNIKKS |  |  |  |  |  |  |  |  | ~100 | ~20 | ~100 | ~100 | ~0 | ~90
